The results in this text go back to article doi:10.1101/2023.12.01.569227 (bioRxiv, 2023).

To fix the notation:
B1: VHH-72 (VHH)
VHH: QVQLQESGGGLVQAGGSLRLSCAASGRTFSEYAMGWFRQAPGKEREFVATISWSGGSTYYTDSVKGRFTISRDNAKNTVYLQMNSLKPDDTAVYYCAAAGLGTVVSEWDYDYDYWGQGTQVTVSS
B2: Seq5 (VHH)
VHH: QVQLQESGGGLVQAGGSLRLSCAASGRMFSEYAMGWFRQAPGKEREFVATISWSGKGTYYTDSVKGRFTISRDNAKNTVYLQMNSLKPDDTAVYYCARAGFGVYVSEWDYDYDYWGQGTQVTVSS
B3: Seq8 (VHH)
VHH: QVQLQESGGGLVQAGGSLRLSCAASGYGFSEYAMGWFRQAPGKEREFVATISWSGRSTYYTDSVKGRFTISRDNAKNTVYLQMNSLKPDDTAVYYCARAGWGVVVSEWDYDYDYWGQGTQVTVSS
B4: Seq4 (VHH)
VHH: QVQLQESGGGLVQAGGSLRLSCAASGRSFSEYAMGWFRQAPGKEREFVATISWSGRATYYTDSVKGRFTISRDNAKNTVYLQMNSLKPDDTAVYYCARAGYGVVVSEWDYDYDYWGQGTQVTVSS
B5: Seq6 (VHH)
VHH: QVQLQESGGGLVQAGGSLRLSCAASGRLFSEYAMGWFRQAPGKEREFVATISWSGRSTYYTDSVKGRFTISRDNAKNTVYLQMNSLKPDDTAVYYCAKAGWGVVVSEWDYDYDYWGQGTQVTVSS
B6: Seq7 (VHH)
VHH: QVQLQESGGGLVQAGGSLRLSCAASGLKFSETAMGWFRQAPGKEREFVATISWSGRSTYYTDSVKGRFTISRDNAKNTVYLQMNSLKPDDTAVYYCARAGYGVVVSEWDYDYDYWGQGTQVTVSS
B7: Seq11 (VHH)
VHH: QVQLQESGGGLVQAGGSLRLSCAASGRKFSEYAMGWFRQAPGKEREFVATISWSGRLTYYTDSVKGRFTISRDNAKNTVYLQMNSLKPDDTAVYYCAGAGYGVVVSEWDYDYDYWGQGTQVTVSS
B8: Seq3 (VHH)
VHH: QVQLQESGGGLVQAGGSLRLSCAASGRMFSETAMGWFRQAPGKEREFVATISWSGRGTYYTDSVKGRFTISRDNAKNTVYLQMNSLKPDDTAVYYCAGAGYGVYVSEWDYDYDYWGQGTQVTVSS
B9: Seq1 (VHH)
VHH: QVQLQESGGGLVQAGGSLRLSCAASGRTFSETAMGWFRQAPGKEREFVATISWSGRGTYYTDSVKGRFTISRDNAKNTVYLQMNSLKPDDTAVYYCAYAGYGVVVSEWDYDYDYWGQGTQVTVSS
B10: Seq2 (VHH)
VHH: QVQLQESGGGLVQAGGSLRLSCAASGRGFSEYAMGWFRQAPGKEREFVATISWSGGGTYYTDSVKGRFTISRDNAKNTVYLQMNSLKPDDTAVYYCARAGFGVWVSEWDYDYDYWGQGTQVTVSS

One test addresses SARS-CoV-2 RBD (SARS-CoV-2, Wuhan-Hu-1, UniProt P0DTC2, biotinylated with an EZ-Link NHS-PEG4 biotinylation kit). The test can be described thus: BLI. (BLI is a label-free optical method that tracks binding on a fibre tip over time.)
Consider B1, for which the “fold weaker binding than to SARS-CoV-1 RBD” value is over 5 fold.

A further test deals with SARS-CoV-1 RBD (SARS-CoV-1 (SARS-CoV), Urbani, UniProt P59594, biotinylated with an EZ-Link NHS-PEG4 biotinylation kit). The test can be described thus: BLI.
Turning to B1, the binding result is on record as “binds”.

Regarding B2, the binding result is on record as “binds”. As to B3, the binding result is “binds”. With B4, the binding result was “binds”.

On to B5, for which the binding result is on record as “binds”. Consider B6, for which the binding result is listed as “binds”.

In the case of B7, the binding result is “binds”. As for B8, the binding result is reported as “binds”. Turning to B9, the binding result is “binds”. For B10, the binding result is “binds”.
